# From the RNAGym collection of RNA variant scans (doi:10.7554/elife.80360)
# B1: Hairpin Ribozyme (parent)
# chain: GUCCUCUUUCACGUGCGCGUGAAAGAGAGAAGUGAACCAGAGAAACACACGUUGUGGUAUAUUACCUGGUA
# Variants of: B1
# Assay: self-cleavage, relative activity (ratio to wild type); higher = more cleavage; co-transcriptional
row,Variant,self-cleavage
1,GUCCUCUUUCACGUGCGCGUGAAUGAGAGAAGUGAACCAGAGAAACACACGUUGUGGUAUAUUACCUGCUA [A24U G69C],0.271
2,GUCCUCUUUCACGUGCGCGGGAAAGAGAGAAGUGUACCAGAGAAACACACGUUGUGGUAUAUUACCUGGUA [U20G A35U],0.581
3,GUCCUCUUUCACGUGCGAGUGAAAGAGAGAAGUGAACUAGAGAAACACACGUUGUGGUAUAUUACCUGGUA [C18A C38U],0.526
4,UUCCUCUUUCACGUACGCGUGAAAGAGAGAAGUGAACCAGAGAAACACACGUUGUGGUAUAUUACCUGGUA [G1U G15A],0.171
5,GUCCUCUUUCACGUGCGCGUGAAAGAGAGAAGUGAACCAUAGAAACACACGUUGUGGUAGAUUACCUGGUA [G40U U60G],0.128
6,GUCCUCUUUCACGUGCGCGUGAAAGAGAGAAGUGAACCAGAGAAACUCACGUUGUCGUAUAUUACCUGGUA [A47U G56C],0.125
7,GUCCUCUUUCACGUGCGCGUGAAAGAGAGACGUGAACCAGAGAAUCACACGUUGUGGUAUAUUACCUGGUA [A31C A45U],0.0614
8,GUCCUCUUUCACGUGUGCGUGAAAGAGAGAAGUGAACCCGAGAAACACACGUUGUGGUAUAUUACCUGGUA [C16U A39C],0.641
9,GUCCUUUUUCACUUGCGCGUGAAAGAGAGAAGUGAACCAGAGAAACACACGUUGUGGUAUAUUACCUGGUA [C6U G13U],0.6
10,GUCCUCUUUCACGUGCGCGUGAAAGAGAGAAGUGAUCCAGAGAAACACACGUUGUGGUAUAUUACCUGGAA [A36U U70A],0.775
11,GUCCUCUUUCACGUGCGCGUGAAAGAGAAAAGUGAGCCAGAGAAACACACGUUGUGGUAUAUUACCUGGUA [G29A A36G],0.135
12,GUCCUCUUUCACGUGCGCGUCAAAGAGAGAAGUGAACCAGACAAACACACGUUGUGGUAUAUUACCUGGUA [G21C G42C],0.195
13,GUCCUUUUUCACGUGCGCGUGUAAGAGAGAAGUGAACCAGAGAAACACACGUUGUGGUAUAUUACCUGGUA [C6U A22U],0.789
14,GUCCUCUUUCGCGUGCGCGUGAAAGAGAGAAGUGAACCAGAGACACACACGUUGUGGUAUAUUACCUGGUA [A11G A44C],0.203
15,GUCCUCUUUCACGUGCGCGUGAAAGAGCGAAGUGAACCAGAGAAACUCACGUUGUGGUAUAUUACCUGGUA [A28C A47U],0.0267
16,GUCCUCUUUCACGUGCGCGUGACAGAGAGAAGUGAACCAGAUAAACACACGUUGUGGUAUAUUACCUGGUA [A23C G42U],0.348
17,GUCCUCUUUCACGUGCGCGUGAAAGAGAGAAGUGAACCAAAGAAACACACGUUGUGGCAUAUUACCUGGUA [G40A U58C],0.558
18,GUCCUCUUUCACGUGGGCGUGAAAGAUAGAAGUGAACCAGAGAAACACACGUUGUGGUAUAUUACCUGGUA [C16G G27U],0.106
19,GUCCUCUUUCACGUGCGCGUGAAAGAGAGAAGUGAACCAGAGAAACACACGUUGUGGUAUAUUACGUGAUA [C66G G69A],0.185

row,Variant,self-cleavage
1,GUCCUCUUUCACGUGCGCGUGAAAGAGAGAAGUGAACCAGAGAAACACACUUUGUGUUAUAUUACCUGGUA [G51U G57U],0.271
2,GUCCUCUUUCACGUGCGCGUGAAAGAGAGGAGUGAACCAGAGAAACACACGUUGUGGGAUAUUACCUGGUA [A30G U58G],0.19
3,GUCCUCUUUCACGUGCGCGUGAAAGAGAGAAGUGAAUCAGAGAAGCACACGUUGUGGUAUAUUACCUGGUA [C37U A45G],0.0764
4,GUCCUCUUUCACGUGCGCGUGAAAGAGAGGAGUGAACCAGAGACACACACGUUGUGGUAUAUUACCUGGUA [A30G A44C],0.169
5,GUCCUCUUUCACGUGCGCGUGAAAGAGAGAAGUGAACCAGAGCUACACACGUUGUGGUAUAUUACCUGGUA [A43C A44U],0.171
6,GUACUCUUCCACGUGCGCGUGAAAGAGAGAAGUGAACCAGAGAAACACACGUUGUGGUAUAUUACCUGGUA [C3A U9C],0.532
7,GUCCUCUUUCACUUGCGCGUGAAAGAGAGAAUUGAACCAGAGAAACACACGUUGUGGUAUAUUACCUGGUA [G13U G32U],0.157
8,GUCCUCUUUCACGUGCGCGUGAAAGAGAGAAGUGAACCAGAGAAAGACACGUUGUUGUAUAUUACCUGGUA [C46G G56U],0.173
9,GUCCUCUUUCACGUGCGCGUGAAAGACAGAAGUGAACCAGAGAAACACACGUGGUGGUAUAUUACCUGGUA [G27C U53G],0.169
10,GUCCUAUUUCACGAGCGCGUGAAAGAGAGAAGUGAACCAGAGAAACACACGUUGUGGUAUAUUACCUGGUA [C6A U14A],0.612
11,GUCCUCUUGCACGUGCGCGUGAAAGAGUGAAGUGAACCAGAGAAACACACGUUGUGGUAUAUUACCUGGUA [U9G A28U],0.46
12,UUCCUCUUUCACGUGCGCGUGAAAGAGAGAAGUGAACCACAGAAACACACGUUGUGGUAUAUUACCUGGUA [G1U G40C],0.055
13,GUCCUCUUUCACGUGCGUGUGAAAGAGAGAAGUGAACCAGAGAAACACACGUUGUGCUAUAUUACCUGGUA [C18U G57C],0.157
14,GUCCUCUUUCACGUGCGCGUGAAAGAGAGAAGUGAAACAGAGAAACACACGUUGUGGUAUAUUACCCGGUA [C37A U67C],0.0944
15,GUCCUCUUUCACGUGCGCGUGAAAGAGAGAAGUGGACCAGAGAAACACACGUUGUUGUAUAUUACCUGGUA [A35G G56U],0.154
16,GUCCUCUUUCACGUGCGCGUGAAAGAGAUAAGUGAACCAGAGAAACAGACGUUGUGGUAUAUUACCUGGUA [G29U C48G],0.096
17,GUCCUCUUUCACGUGCGCGUGAAAGAGAGAAGUGAACCAGAGAAACACACGCUGUGGAAUAUUACCUGGUA [U52C U58A],0.67
18,GUCCUCUUCCACGUGCGCGUGAAUGAGAGAAGUGAACCAGAGAAACACACGUUGUGGUAUAUUACCUGGUA [U9C A24U],0.677
19,GUCCUCUUCCACGUGCGCGUGAAAGAGAGAAGUGAACCAGAGAAACACACGUUGUGGUUUAUUACCUGGUA [U9C A59U],0.146
